Reference: patent publication US20170224620A1 (Pfizer, published 2017)
Bridges are numbered along the chain shown (N, C = ends). Primed or numbered codes have the meaning given here. Side-chain parts run from the residue outwards. [ ]: non-standard residue; d: D form. The star is where a group is joined. Trp(5-OMe) = COc1ccc2[nH]cc(C[C@H](N)C(=O)O)c2c1; Igl = N[C@H](C(=O)O)C1Cc2ccccc2C1; Pen = CC(C)(S)[C@H](N)C(=O)O; DBCO′ = dibenzocyclooctyne; PEG4′ = not defined here; Acm = CC(=O)NC*

B1: EGFf-6 (peptide)
peptide: H-LDKYACNC(Acm)VV-NH2
SMILES: CC(=O)NCSC[C@H](NC(=O)[C@H](CC(N)=O)NC(=O)[C@H](CS)NC(=O)[C@H](C)NC(=O)[C@H](Cc1ccc(O)cc1)NC(=O)[C@H](CCCCN)NC(=O)[C@H](CC(=O)O)NC(=O)[C@@H](N)CC(C)C)C(=O)N[C@H](C(=O)N[C@H](C(N)=O)C(C)C)C(C)C
B2: EGFf-7 (peptide)
peptide: H-C(Acm)NCVVGYIGE-NH2
SMILES: CC[C@H](C)[C@H](NC(=O)[C@H](Cc1ccc(O)cc1)NC(=O)CNC(=O)[C@@H](NC(=O)[C@@H](NC(=O)[C@H](CS)NC(=O)[C@H](CC(N)=O)NC(=O)[C@@H](N)CSCNC(C)=O)C(C)C)C(C)C)C(=O)NCC(=O)N[C@@H](CCC(=O)O)C(N)=O
B3: P2-55 (Ac-DPPen…enLQGGK(PEG4-DBCO)-CONH2) (peptide)
peptide: DPXTWEVWGREXLQGGK
modifications: N-terminal acetyl; penicillamine at 3 and 12, disulfide; Lys17(PEG4-DBCO); C-terminal amide
notes: also called Pen analog
B4: P2-2/55 (Ac-DAPen…enLQGGK(DBCO)-CONH2) (peptide)
peptide: DAXTWEVWGREXLQGGK
modifications: N-terminal acetyl; penicillamine at 3 and 12, disulfide; Lys17(DBCO); C-terminal amide
notes: also called DA PenPen
B5: P2-2/55/102 (Ac-DAPenT(2Ind)GEV(5MeO)WGREPenLQGGK(DBCO)-CONH2) (peptide)
peptide: Ac-DA[Pen]T[Igl]EV[Trp(5-OMe)]GRE[Pen]LQGGK(DBCO′)-NH2
modifications: disulfide 3-12
notes: also called DA Aro PenPen; triple mutant
B6: 1% P2-55 nanoparticle (other)
peptide: DPXTWEVWGREXLQGGK
modifications: not fully specified; N-terminal acetyl; penicillamine at 3 and 12, disulfide; Lys17(PEG4-DBCO) clicked to azide PLA-PEG nanoparticle at 1%; C-terminal amide
notes: also called P2-55 1% Ligand Density NP
B7: 5% P2-2/55 nanoparticle (other)
peptide: DAXTWEVWGREXLQGGK
modifications: not fully specified; N-terminal acetyl; penicillamine at 3 and 12, disulfide; Lys17(DBCO) clicked to azide PLA-PEG nanoparticle at 5%; C-terminal amide
notes: also called P2-2/55 [DA PenPen]; NP; Ala2-Pen
B8: P1-1 (peptide)
peptide: Ac-SECAPLAPDWLSCILGGK(DBCO′)-NH2
modifications: disulfide 3-13
notes: also called P1 alanine scan, AA position 4
B9: P1-5 (peptide)
peptide: Ac-SECFPLAPAWLSCILGGK(DBCO′)-NH2
modifications: disulfide 3-13
notes: also called P1 alanine scan, AA position 9
B10: P1-8 (peptide)
peptide: Ac-SECFPLAPDWLACILGGK(DBCO′)-NH2
modifications: disulfide 3-13
notes: also called P1 alanine scan, AA position 12
B11: P1-7 (peptide)
peptide: Ac-SECFPLAPDWASCILGGK(DBCO′)-NH2
modifications: disulfide 3-13
notes: also called P1 alanine scan, AA position 11
B12: P1-2 (peptide)
peptide: Ac-SECFALAPDWLSCILGGK(DBCO′)-NH2
modifications: disulfide 3-13
notes: also called P1 alanine scan, AA position 5
B13: P1-3-1 (peptide)
peptide: Ac-AECFPAAPDWLSCILGGK(DBCO′)-NH2
modifications: disulfide 3-13
notes: also called alanine scan of flanking residues on P1-3, AA position 1
B14: P1-6 (peptide)
peptide: Ac-SECFPLAPDALSCILGGK(DBCO′)-NH2
modifications: disulfide 3-13
notes: also called P1 alanine scan, AA position 10
B15: P1-4 (peptide)
peptide: Ac-SECFPLAADWLSCILGGK(DBCO′)-NH2
modifications: disulfide 3-13
notes: also called P1 alanine scan, AA position 8
B16: P1-3-4 (peptide)
peptide: Ac-SECFPAAPDWLSCIAGGK(DBCO′)-NH2
modifications: disulfide 3-13
notes: also called alanine scan of flanking residues on P1-3, AA position 15
B17: 5% P2-2 nanoparticle (other)
peptide: Ac-DACTWEVWGRECLQGGK-NH2
modifications: disulfide 3-12; not fully specified (residue 17)
notes: also called P2-2 5% Ligand Density NP; alanine analog NP
B18: 5% P2-55 nanoparticle (other)
peptide: DPXTWEVWGREXLQGGK
modifications: not fully specified; N-terminal acetyl; penicillamine at 3 and 12, disulfide; Lys17(PEG4-DBCO) clicked to azide PLA-PEG nanoparticle at 5%; C-terminal amide
notes: also called P2-55 5% Ligand Density NP; Pen analog NP
B19: Peptide 1 (peptide)
peptide: Ac-SECFPLAPDWLSCIL-NH2
modifications: disulfide 3-13 (inferred)
notes: named singly only on the sheet; also called free literature peptide without the GGK(DBCO) tail

biological target: T1, Fc tagged recombinant human EGFR (rhEGFR-Fc, R&D systems, Cat#344-ER-050) (human, UniProt P00533 25-645); experiment: screening ELISA, peptide 100 µM against 0.7 nM biotin-EGF on coated rhEGFR
T1 construct: Bought protein; also called apo-EGFR; not shown: Fc tag

| Binder | % inhibition of EGF [%] |
| --- | --- |
| H-GYIGERCQYR-NH2 [EGFf-8] | < 20 |
| H-YRDLKWWELR-NH2 [EGFf-10] | < 20 |
| B1 | < 20 |
| H-RCQYRDLKWW-NH2 [EGFf-9] | 63.8 |
| H-NSDSECPLSH-NH2 [EGFf-1] | < 20 |
| B2 | < 20 |

biological target: T1, Fc tagged recombinant human EGFR …; experiment: SPR, peptide over captured rhEGFR-Fc, without EGF
Description: (§1) Surface plasmon resonance (SPR) binding studies were carried out on a Biacore T200 instrument (GE Healthcare). […] The contact time and resulting amount of rhEGFR-Fc capture was varied based on the nature of the analyte, namely whether it was a peptide or nanoparticle.
(§2) Peptide binding assays were carried out in 10 mM PBS buffer supplemented with 0.05% surfactant P20 and 5% DMSO by volume, at 25° C. Peptides were injected over the rhEGFR-Fc surface for 60 s, followed by dissociation (buffer injection) for 60 s and regeneration with a 10 s pulse of 3M MgCl₂. A fresh rhEGFR-Fc surface was generated for each concentration of each peptide tested. Peptide binding data was analyzed by fitting to a 1:1 Langmuir kinetic model to obtain the on-rate (kₐ), off-rate (kd) and/or equilibrium binding constant (KD) of the interaction.
The two aromatic mutations P₂₋₉₈ and P₂₋₁₀₁ were combined into one peptide (P₂₋₁₀₂).

| Binder | Kd [nM] |
| --- | --- |
| B3 | 74 |
| B4 | 137 |
| Ac-DP[Pen]T[Igl]EV[Trp(5-OMe)]GRE[Pen]LQGGK(DBCO′)-NH2 (disulfide 3-12, also called Aro PenPen) [P2-55/102 (Ac-DPPenT(2Ind)GEV(5MeO)WGREPenLQGGK(DBCO)-CONH2)] | 72 |
| B5 | 53 |
| Ac-DACT[Igl]EV[Trp(5-OMe)]GRECLQGGK(DBCO′)-NH2 (disulfide 3-12, also called DA Aro) [P2-2/102 (Ac-DACT(2Ind)GEV(5MeO)WGRECLQGGK(DBCO)-CONH2)] | 23.8 |
| Ac-DPCT[Igl]EV[Trp(5-OMe)]GRECLQGGK(PEG4‑DBCO)-NH2 (disulfide 3-12, also called aromatic analog) [P2-102 (Ac-DPCT(2Ind)GEV(5MeO)WGRECLQGGK(PEG4-DBCO)-CONH2)] | 38 |

biological target: T2, EGF bound EGFR (rhEGFR-Fc with recombinant human EGF pre-injected in SPR or 50 nM EGF present in ELISA) (human, UniProt P00533 25-645; P01133 971-1023); experiment: P2 competition ELISA, 1% ligand density NP
T2 construct: Complex of m1 and m5 as target; also called EGFR in the presence of EGF; With EGF; not shown: Fc tag

| Binder | IC50 [µg/mL] | Rel IC50 (against P2 NP) [ratio] |
| --- | --- | --- |
| B6 | 135 | 1.67 |
| Ac-DACTWEVWGRECLQGGK-NH2 (other, disulfide 3-12; not fully specified (residue 17), also called P2-2 1% Ligand Density NP) [1% P2-2 nanoparticle] | 17 | 0.2 |
| Ac-DPCT[Igl]EV[Trp(5-OMe)]GRECLQGGK([PEG4′-DBCO′])-NH2 (other, disulfide 3-12; not fully specified) [1% P2-102 nanoparticle] | 7.6 | 0.09 |

biological target: T2, EGF bound EGFR (rhEGFR-Fc with …); experiment: P2 competition ELISA, 5% nanoparticle conjugate

| Binder | IC50 [µg/mL] | Rel. Diff. (against P2 NP) [ratio] |
| --- | --- | --- |
| B7 | 6.3 | 1.05 |

biological target: T1, Fc tagged recombinant human EGFR …; experiment: EGF competition ELISA, free peptide
Description: An alanine scan was performed on the amino acids within the cyclic portion of the peptide structure to determine which amino acids were critical for binding. Each amino acid within the peptide was individually replaced with alanine. […] Subsequently, an alanine scan of the flanking amino acids on P₁₋₃ was performed.

| Binder | Peptide Relative IC50 (normalized to P1) [ratio] |
| --- | --- |
| B8 | 1.9 |
| B9 | 4.4 |
| B10 | 1 |
| B11 | 3.5 |
| B12 | 11.5 |
| B13 | 0.7 |
| B14 | 7.1 |
| B15 | 2.7 |
| B16 | 3.2 |

biological target: EGF bound EGFR (rhEGFR-Fc with recombinant human EGF pre-injected in SPR or 50 nM EGF present in ELISA) (human) (UniProt P00533); experiment: P2 competition ELISA, 5% nanoparticle conjugate

| Binder | IC50 [µg/mL] | Rel. Diff. (against P2 NP) |
| --- | --- | --- |
| Ac-DA[Pen]T[Igl]EV[Trp(5-OMe)]GRE[Pen]LQGGK(DBCO′)-NH2 (disulfide 3-12; not fully specified) [5% P2-2/55/102 nanoparticle] | 1.6 | 0.27 |
| Ac-DACT[Igl]EV[Trp(5-OMe)]GRECLQGGK(DBCO′)-NH2 (disulfide 3-12; not fully specified) [5% P2-2/102 nanoparticle] | 3.7 | 0.62 |
| Ac-DP[Pen]T[Igl]EV[Trp(5-OMe)]GRE[Pen]LQGGK(DBCO′)-NH2 (disulfide 3-12; not fully specified) [5% P2-55/102 nanoparticle] | 2.2 | 0.37 |

biological target: T2, EGF bound EGFR (rhEGFR-Fc with …); experiment: SPR, peptide over captured rhEGFR-Fc after rhEGF pre-injection
Description: as §1, §2

| Binder | Kd [nM] |
| --- | --- |
| B3 | 69 |
| B4 | 97 |
| Ac-DP[Pen]T[Igl]EV[Trp(5-OMe)]GRE[Pen]LQGGK(DBCO′)-NH2 (disulfide 3-12, also called Aro PenPen) [P2-55/102 (Ac-DPPenT(2Ind)GEV(5MeO)WGREPenLQGGK(DBCO)-CONH2)] | 75.4 |
| B5 | 33.4 |
| Ac-DACT[Igl]EV[Trp(5-OMe)]GRECLQGGK(DBCO′)-NH2 (disulfide 3-12, also called DA Aro) [P2-2/102 (Ac-DACT(2Ind)GEV(5MeO)WGRECLQGGK(DBCO)-CONH2)] | 23.3 |
| Ac-DPCT[Igl]EV[Trp(5-OMe)]GRECLQGGK(PEG4‑DBCO)-NH2 (disulfide 3-12, also called aromatic analog) [P2-102 (Ac-DPCT(2Ind)GEV(5MeO)WGRECLQGGK(PEG4-DBCO)-CONH2)] | 32 |

biological target: T2, EGF bound EGFR (rhEGFR-Fc with …); experiment: P2 competition ELISA, 5% ligand density NP

| Binder | IC50 [µg/mL] | Rel IC50 (against P2 NP) [ratio] |
| --- | --- | --- |
| B17 | 3 | 0.7 |
| Ac-DPCT[Igl]EV[Trp(5-OMe)]GRECLQGGK([PEG4′-DBCO′])-NH2 (other, disulfide 3-12; not fully specified, also called aromatic analog NP) [5% P2-102 nanoparticle] | 2.6 | 0.6 |
| B18 | 3.4 | 0.79 |

biological target: T1, Fc tagged recombinant human EGFR …; experiment: SPR, response against peptide concentration, rhEGFR-Fc captured
Description: as §1, §2
All of the peptides were synthesized and evaluated for EGFR binding using SPR (Table 7). […] FIGS. 8A and 8B show a summary of the SPR binding data for the peptides.

| Binder | binding result |
| --- | --- |
| Ac-MFCFRWYAGWSCVS-NH2 (disulfide 3-12 (inferred), named singly only on the sheet) [Peptide 8] | binds |
| Ac-SGCLDALWQCVY-NH2 (disulfide 3-10 (inferred), named singly only on the sheet) [Peptide 4] | binds |
| B19 | binds |
